T1: Pho1M FEN1 (Pyrococcus horikoshii, UniProt O50123 SEQ:1-343)
T1 chain: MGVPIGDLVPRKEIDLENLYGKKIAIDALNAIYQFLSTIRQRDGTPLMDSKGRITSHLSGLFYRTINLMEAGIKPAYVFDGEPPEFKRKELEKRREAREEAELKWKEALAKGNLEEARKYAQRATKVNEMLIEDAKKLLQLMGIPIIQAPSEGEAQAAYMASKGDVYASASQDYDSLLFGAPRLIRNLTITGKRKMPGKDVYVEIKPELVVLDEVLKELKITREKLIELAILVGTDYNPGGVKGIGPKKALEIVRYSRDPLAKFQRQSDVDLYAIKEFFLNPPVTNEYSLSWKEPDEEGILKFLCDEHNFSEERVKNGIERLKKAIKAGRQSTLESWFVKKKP

T2: Afu FEN1 (Archaeoglobus fulgidus, UniProt O29975 SEQ:1-336)
T2 sequence: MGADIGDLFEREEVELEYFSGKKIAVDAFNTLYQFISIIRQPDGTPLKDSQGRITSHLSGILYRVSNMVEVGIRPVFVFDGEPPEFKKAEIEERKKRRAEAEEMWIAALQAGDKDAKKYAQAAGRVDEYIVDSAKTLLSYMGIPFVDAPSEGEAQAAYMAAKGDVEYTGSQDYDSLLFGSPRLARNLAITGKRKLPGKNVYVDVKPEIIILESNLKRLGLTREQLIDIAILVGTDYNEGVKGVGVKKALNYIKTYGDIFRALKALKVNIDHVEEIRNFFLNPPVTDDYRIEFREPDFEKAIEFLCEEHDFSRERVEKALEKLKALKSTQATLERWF

T3: Pho2M FEN1 (Pyrococcus horikoshii, UniProt O50123 SEQ:1-343)
T3 chain: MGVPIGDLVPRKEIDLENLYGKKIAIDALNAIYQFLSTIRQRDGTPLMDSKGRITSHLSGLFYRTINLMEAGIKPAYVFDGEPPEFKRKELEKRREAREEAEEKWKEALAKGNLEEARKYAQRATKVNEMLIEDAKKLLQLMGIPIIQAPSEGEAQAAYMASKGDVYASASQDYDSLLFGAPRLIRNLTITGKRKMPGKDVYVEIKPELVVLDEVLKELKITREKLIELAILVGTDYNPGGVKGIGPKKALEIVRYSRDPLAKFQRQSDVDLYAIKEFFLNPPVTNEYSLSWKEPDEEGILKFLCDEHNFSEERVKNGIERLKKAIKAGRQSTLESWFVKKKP

T4: Pfu3M FEN1 (Pyrococcus furiosus, UniProt O93634 SEQ:1-340)
T4 chain: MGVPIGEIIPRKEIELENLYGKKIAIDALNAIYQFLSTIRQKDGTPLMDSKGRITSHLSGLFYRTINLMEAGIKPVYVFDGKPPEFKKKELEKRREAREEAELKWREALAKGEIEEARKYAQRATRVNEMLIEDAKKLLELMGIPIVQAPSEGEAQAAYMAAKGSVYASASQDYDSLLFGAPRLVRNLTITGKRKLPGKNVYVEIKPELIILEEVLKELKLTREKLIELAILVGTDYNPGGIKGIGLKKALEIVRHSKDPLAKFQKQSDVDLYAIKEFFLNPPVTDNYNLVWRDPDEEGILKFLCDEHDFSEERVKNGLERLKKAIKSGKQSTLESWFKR

T5: Pfu1M FEN1 (Pyrococcus furiosus, UniProt O93634 SEQ:1-340)
T5 chain: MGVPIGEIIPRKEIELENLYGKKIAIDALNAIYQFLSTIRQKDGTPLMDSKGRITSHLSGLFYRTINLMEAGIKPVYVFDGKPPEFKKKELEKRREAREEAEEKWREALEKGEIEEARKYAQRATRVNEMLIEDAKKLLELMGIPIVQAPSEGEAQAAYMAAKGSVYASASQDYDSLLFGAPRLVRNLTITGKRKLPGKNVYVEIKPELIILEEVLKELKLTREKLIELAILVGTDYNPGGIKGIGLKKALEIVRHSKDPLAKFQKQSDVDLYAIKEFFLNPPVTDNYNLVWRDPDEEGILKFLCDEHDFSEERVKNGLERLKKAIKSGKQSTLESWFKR

T6: Mja FEN1 (Methanococcus jannaschii, UniProt Q58839 SEQ:1-326)
T6 sequence: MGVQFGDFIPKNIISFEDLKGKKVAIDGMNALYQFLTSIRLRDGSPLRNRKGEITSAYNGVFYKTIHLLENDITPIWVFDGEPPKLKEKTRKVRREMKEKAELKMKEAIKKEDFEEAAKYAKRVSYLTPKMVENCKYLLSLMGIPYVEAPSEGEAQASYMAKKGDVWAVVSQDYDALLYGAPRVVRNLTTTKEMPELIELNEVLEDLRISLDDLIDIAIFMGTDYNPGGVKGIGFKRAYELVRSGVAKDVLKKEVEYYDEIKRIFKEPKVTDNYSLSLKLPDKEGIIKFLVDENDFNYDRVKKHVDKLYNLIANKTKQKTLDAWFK

B1: X-structure 203-81-2/203-91-2 (structured_DNA)
DNA 1: TTTTCAACTGCTTAGAGAATCTAAGCAGTTGGTGCGCCTCGTTAA
DNA 2: AACGAGGCGCACATT
modifications: 3'-NH2 on first strand
B2: INVADER substrate 594-12-1/203-91-1 (structured_DNA)
DNA 1: TTTTTCACGGCAGTTGGTGCGCCTCGGAACGAGGCGCACA
DNA 2: TTTTCAACTGCCGTGA

Assays:
Assay in all cases: cleavage_in_vitro; rate vs Pfu FEN1
Pho1M FEN1 = biological target: T1, Pho1M FEN1
Experimental: (§1) For the evaluation of chimeric enzymes, standard tests were performed to measure the performance and specificity of the enzymes. […] 10 μl reactions are run at 59 C for between 5 to 60 minutes depending on the enzyme. Reactions are stopped by the addition of 10 μl of 95% formamide, 0.02% methyl violet. 1 μl of the mixture is run on a denaturing 20% acrylamide gel and electrophoresed for 15 minutes or until good separation is achieved between cleaved and uncleaved probe. The gels are scanned using an FMBIO fluorescent gel scanner and the bands are quantified with FMBIOAnalysis software. Cleavage rates are determined from the percent probe cleaved. Cleavage rate for the INVADER substrate is defined as the number of probe molecules cleaved per target molecule per minute. In Table 5, below, the cleavage rates for the mutant enzymes are compared to the cleavage rates for unmodified Pfu FEN1 enzyme on the INVADER assay and X-structure substrates.
(§2) The X-structure substrate is used to determine the amount of background cleavage an enzyme will carry out in an INVADER reaction. It mimics the structure created by uncut primary probe and secondary FRET cassette in the INVADER squared reaction. […] 10 μl reactions are run at 59 C for between 3 to 30 minutes depending on the enzyme. Reactions are stopped by the addition of 10 μl of 95% formamide, 0.02% methyl violet. 1 μl of the mixture is run on a denaturing 20% acrylamide gel and electophoresed for 15 minutes or until good separation is achieved between cleaved and uncleaved probe. The gels are scanned using an FMBIO fluorescent gel scanner and the bands are quantified with FMBIOAnalysis software. Cleavage rates are determined from the percent probe cleaved.

Afu FEN1 = biological target: T2, Afu FEN1
Experimental: as §1, §2

Pho2M FEN1 = biological target: T3, Pho2M FEN1
Experimental: as §1, §2

Pfu3M FEN1 = biological target: T4, Pfu3M FEN1
Experimental: as §1, §2

Pfu1M FEN1 = biological target: T5, Pfu1M FEN1
Experimental: as §1, §2

Mja FEN1 = biological target: T6, Mja FEN1
Experimental: as §1, §2

[1] = label: 5'-biotin target, 5'-TET probe, hairpin target-INVADER with overlapping probe flap

| Binder | cleavage rate (Pho1M FEN1; label: 5'-TET, X-structure) | cleavage rate (Afu FEN1; label: 5'-TET, X-structure) | cleavage rate (Pho2M FEN1; label: 5'-TET, X-structure) | cleavage rate (Pfu3M FEN1; label: 5'-TET, X-structure) | cleavage rate (Pfu1M FEN1; label: 5'-TET, X-structure) | cleavage rate (Mja FEN1; label: 5'-TET, X-structure) | cleavage rate (Pho1M FEN1; [1]) | cleavage rate (Afu FEN1; [1]) | cleavage rate (Pho2M FEN1; [1]) | cleavage rate (Pfu3M FEN1; [1]) | cleavage rate (Pfu1M FEN1; [1]) | cleavage rate (Mja FEN1; [1]) |
| --- | --- | --- | --- | --- | --- | --- | --- | --- | --- | --- | --- | --- |
| B1 | 18 | 0.5 | 31 | 4.9 | 0.85 | 203 | – | – | – | – | – | – |
| B2 | – | – | – | – | – | – | 1.1 | 0.52 | 1.6 | 1.8 | 0.83 | 1.9 |
